Experimental findings from the DeepSol protein solubility set are described below.

This data set in a line: soluble on expression in E. coli; label from the status in PepcDB or PDB records.
As to “MGSDKIHHHHHHMDSSAAFSNPTKLRADLLRGRLDVSVDSSTIAPDSLFGFAERRNPKRAFLFVSRVLGRHIPARPSVMLKSFQDLAHKIPVDLPGPVLVIGMAETAVGLGAGVHRAYSETHSDALYLVSTRHPTGTELFARFEEEHSHASAHLIHLPADPALRDMMLGARSLVLVDDEASTGKTFINLHQALVEAGLSKIERVVTCVLTDWSAGAVSTSMGAVAEQVSLLQGSYSFDEDVSAPLPDMPEVGTVAMGDWPLLTANDWGRMGVLAVADTLAPGLTVNKGERVLVVGTSEFVWRPFLLAERLEKAGADVHFSSTSRSPIALGHAIDHALSFSDNYGLGIPNFLYNVRPGQFDRVLICTETPRQAVPAELIEALNAEVICDE”, the “soluble on expression in E. coli” value was “not soluble”.
Under “MSLSAGETDERLRIATTTSLYDTKLLDTLESRFEEKYGIEVDVISGGTGFALEQGRRGDVDLLLVHDKAREYEFIAEGYGTERRCFAYNYFYIVGPADDPAGIKGTNASEAFRMIADAGEKNSNVRFVSRGDNSGTHAREKLLWKSAGIEPSGSWYLESGQGMGATLIMVDEKRAYTLTDMSTYMAFAGNLSLVPLVTESEELLNVYAAIPVSASEHLDDAERFVEFLLSQEGQEIIAGYGKDIYGRALFYPAAGHCTEIGCNATECPGEMVSAFGEGHHHHHH” stands “soluble”; under “MSAPVADAPAAEIVYKIISSDGVVSKMSEKAVQQSKTLSNLIENLGYTIENIETRDPIPVTNVNGKTMAKVAELCEKHKADAIPEDNMNVLKTLTIPEWDQKFLKIEDEALFDLILASNFLDIKGLMYYGCKTVSNMAKGKTTAELREIFGINTDEQDAAEETAQKAAAEVA”, “not soluble”.
The entry for “MDMAKDKGFFKKAKTGKNKSSATPYAEECAIQIPSEIDNEQMHRMPAGGEEDQYLRIKHMSALIKKYGNLPIITTRETRLPDYWLELFTAIDEGDTPKAHALFHLLPQEDIILRALRAVHSEDYLYQLIKYCIQAKHFGFKQLNADLVVTPKTFEILIKDCATTLFNPAKTHFSFGLPSHHAYTQMGSGFCLINKTAMLIKQAELSSVQPPRFVIIGTDVNRDNGLCDILRHSFSHLSICHIDVFDSRVYPQQDFSYINNEFNSEGVDVGKNIHVWHHNDLSYYAVDLSLTSRKSVGVHPALLFALEQFKASIREAKVKGQKIALYLPTGWDSHEDETAYCGKFVKGRMLGKTAAHQFRFNDGDLSYFYESIFTLYNENKDCIDTIYWGLEGGYDRTMYKRELTLLLQVIEKQLLPQDSNSHNMSCLEHHHHHH” is “not soluble”; for “MEFREQVLNLLAEVAENDIVKENPDVEIFEEGIIDSFQTVGLLLEIQNKLDIEVSIMDFDRDEWATPNKIVEALEELR” it is “not soluble”; for “MVRIRRAGLEDLPGVARVLVDTWRATYRGVVPEAFLEGLSYEGQAERWAQRLKTPTWPGRLFVAESESGEVVGFAAFGPDRASGFPGYTAELWAIYVLPTWQRKGLGRALFHEGARLLQAEGYGRMLVWVLKENPKGRGFYEHLGGVLLGEREIELGGAKLWEVAYGFDLGGHKW” it is “soluble”.
The entry for “MLCASAEVEVFYDTDNNRKSDPAVFWQNPLNRSKFPLLSQIANRYLTTPASSAESERVFSGAGRVSTKLRRKMSTKSLSKSVFLQQNQKVLGFKIGLD” is “not soluble”; for “MENFHFEHRGPRRDRFARERTGRPEGPHRHGHRRGRFGPEGDPGFGPGMHFGRGRGRGGRGRRGDVRSAILLLLTEEPMHGYELIQQIVERSDGVWKPSPGSIYPALSQLEDEGLVLIEKVAGRKTARLTDEGEAFVEANKTELGTPWDDVRESVGRPAEDLRGLIGLLMGAAGQVAAVGDDEQVRRAGEILTEARRAMYRLLAEDDQSEAGKDDTDS” it is “not soluble”; for “MASTKDEVVRMSVDEYWEDIKDDYLIQLANTDPNEVYPSNNPGPTTADGQINFECHCVGHLVGSPCGFEFREAITCQKTNSDGEIEQGACGKELMSFMECVTRTQCFGTGDNDKK” it is “not soluble”.
With “MRPKKDGLEDFLRLTPEIKKQLGSLVSDYCNVLNKEFTAGSVEITLRSYKICKAFINEAKAHGREWGGLMATLNICNFWAILRNNRVRRRAENAGNDACSIACPIVMRYVLDHLIVVTDRFFIQAPSNRVMIPATIGTAMYKLLKHSRVRAYTYSKVLGVDRAAIMASGKQVVEHLNRMEKEGLLSSKFKAFCKWVFTYPVLEEMFQTMVSSKTGHLTDDVKDVRALIKTLPRASYSSHAGQRSYVSGVLPACLLSTKSKAVETPILVSGADRMDEELMGNDGGASHTEARYSESGQFHAFTDELESLPSPTMPLKPGAQSADCGDSSSSSSDSGNSDTEQSEREEARAEAPRLRAPKSRRTSRPNRGQTPCPSNAAEPEQPWIAAVHQESDERPIFPHPSKPTFLPPVKRKKGLRDSREGMFLPKPEAGSAISDVFEGREVCQPKRIRPFHPPGSPWANRPLPASLAPTPTGPVHEPVGSLTPAPVPQPLDPAPAVTPEASHLLEDPDEETSQAVKALREMADTVIPQKEEAAICGQMDLSHPPPRGHLDELTTTLESMTEDLNLDSPLTPELNEILDTFLNDECLLHAMHISTGLSIFDTSLF”, the “soluble on expression in E. coli” value was “not soluble”.
For “MHHHHHHSSGVDLGTENLYFQSMAQADIALIGLAVMGQNLILNMNDHGFVVCAFNRTVSKVDDFLANEAKGTKVVGAQSLKEMVSKLKKPRRIILLVKAGQAVDDFIEKLVPLLDTGDIIIDGGNSEYRDTTRRCRDLKAKGILFVGSGVSGGEEGARYGPSLMPGGNKEAWPHIKTIFQGIAAKVGTGEPCCDWVGDEGAGHFVKMVHNGIEYGDMQLICEAYHLMKDVLGMAQDEMAQAFEDWNKTELDSFLIEITANILKFQDTDGKHLLPKIRDSAGQKGTGKWTAISALEYGVPVTLIGEAVFARCLSSLKDERIQASKKLKGPQKFQFDGDKKSFLEDIRKALYASKIISYAQGFMLLRQAATEFGWTLNYGGIALMWRGGCIIRSVFLGKIKDAFDRNPELQNLLLDDFFKSAVENCQDSWRRAVSTGVQAGIPMPCFTTALSFYDGYRHEMLPASLIQAQRDYFGAHTYELLAKPGQFIHTNWTGHGGTVSSSSYNA”, the “soluble on expression in E. coli” value is “soluble”.
As for “MGSDKIHHHHHHMVAQLETPSANSSLSLPYPIEGLVQVFTSSHRNFFTSVMGQALRIAGQGTPVLIVQFLKGGIKQGQDRPIQLGQNLDWIRCDLPRCIDTPHLDESENQALQKLWLHTQQVVDEDKYSLVVLDELSLAIHFGLIPESDVLAFLAKRSPHVDIIFTGTEMPQSILDVADQITEIRRSHCP”, the “soluble on expression in E. coli” value is “not soluble”.
The entry for “MGSDKIHHHHHHMPKIWTERIFDDPEIYVLRIDDDRIRYFEAVWEIPEGISYNAYLVKLNGANVLIDGWKGNYAKEFIDALSKIVDPKEITHIIVNHTEPDHSGSLPATLKTIGHDVEIIASNFGKRLLEGFYGIKDVTVVKDGEEREIGGKKFKFVMTPWLHWPDTMVTYLDGILFSCDVGGGYLLPEILDDSNESVVERYLPHVTKYIVTVIGHYKNYILEGAEKLSSLKIKALLPGHGLIWKKDPQRLLNHYVSVAKGDPKKGKVTVIYDSMYGFVENVMKKAIDSLKEKGFTPVVYKFSDEERPAISEILKDIPDSEALIFGVSTYEAEIHPLMRFTLLEIIDKANYEKPVLVFGVHGWAPSAERTAGELLKETKFRILSFTEIKGSNMDERKIEEAISLLKKELE” is “soluble”.
Under “MGSDKIHHHHHHMDLYFVKFRVTSKLTSEIVQGYFLGKLNQIPEYDFFVIPGRYARKYSVDLNLGFEDFLEDFKAKKESALKEVLEASAITDEFFDFWLIQSRKQNLRLVGSEFFRLVESGDHEALRVFIADLFREWSEKLEVEVVGVPLDYEDVSLEVVKEHFEELSTDEVFKLFQREDLRNLPEVFPVLDPLNGVTIREIDVEERIDFVILNYGNEEFSEKFKRFLKEKFGTENVASLPGKVLSKEIVKTREGTLYLLKVEFEEGIIGKAIVSPNLKIKRGESRVKISDEEWMEKIGEMLKEGEESKQEKLKLRNSPQPVQKTTSSD” stands “not soluble”; under “MGSDKIHHHHHHMFLKENSVDDFDKQLDDLFKTTKTSRISELSEALGVSPTTIRTWRGRNKIPASAFRKAELSIQNDSDVKTDTRISLSFYEISASAGGGALVEVEEQANLISFEPEWLNKEIGVNANDVFLMLVDGDSMYPTLKNGAMIMVNKHFNGLSDGIYVMRHEQNLLVKRLQMLPNGIIKVKSDNNLYEPWEINKENLDGTDIEIIGRVVWSGQRM”, “not soluble”.
The entry for “MAHHHHHHMLRLTQAVLRVQSHQKKRAQHPNAGTRFGRVYNRGFVRYGFGGFGMSVYSSKKDRTFKVMPVPPPPPATTAVEQRDDFADNRGLSATTRTLSPTFRMFALEDGGVLVSHPSHAQIMRWNQRVHTEEGKAANSTVMDEYVNSRIQAIIADNTIENTSLSQWRKAHMWNVIKSHGKLQRRWGTPDFVMGARSTLYNN” is “not soluble”.
Turning to “MKEHSIDIQLSHPDDLFHLFGSNERHLRLMEEELDVVIHARTEIVQVLGEESACEEARQVIQALMVLVNRGMTVGTPDVVTAISMVKNDEIDKFVALYEEEIIKDNTGKPIRVKTLGQKLYVDSVKQHDVTFGIGPAGTGKTFLAVTLAVTALKRGQVKRIILTRPAVEAGESLGFLPGDLKEKVDPYLRPVYDALYQILGKDQTTRLMEREIIEIAPLAYMRGRTLDDAFVILDEAQNTTIMQMKMFLTRLGFHSKMIVNGDISQIDLPRNVKSGLIDAQEKLKNIHQIDFVHFSAKDVVRHPVVAQIIRAYEYSTEVAHD”, the “soluble on expression in E. coli” value was “not soluble”.
Under “MARNRLTESEMNEALRALDGWQKVDGREAITRSFKFKDFSTAFGFMAQAALYAEKLDHHPEWFNAYNRVDVTLATHSENGVTELDIKMARKMNAIAG” stands “soluble”; under “MSSAKLFTPLKVGAITATNRVFMAPLTRLRSIEPGDIPTPLMAEYYRQRASAGLIISEATQISAQAKGYAGAPGLHSDEQIAAWKKITQGVHAQGGHMAVQLWHTGRISHASLQPGGQAPVAPSAINAGTRTSLRDENGQAIRVETSTPRALDTHEIPGIVNDFRQAIANAREAGFDLVELHSAHGYLLHQFLSPSSNHRTDRYGGGVENRARLVLEVVDAGIKEWGADRIGIRLSPVGTFQNVDNGPNEEADALYLIEALGKRGIAYLHMSEPDWAGGEPYSDAFREKVRARFHGPIIGAGAYTPEKAEDLIEKGLIDAVAFGRDYIANPDLVARLQRKAELNPQRPESFYGGGAEGYTDYPTL”, “not soluble”; under “AIAKETEQVSEAPHGLEGAWLDLTNRVRVSGDTVEACSAFSIGPPRCRWLLQATDRGVNCAALDHYVPHICGTHTETVYHIAHHRYIKRAVCEIPFFRFHKARIQVCTAKIACTEQVLPSADTDYPCLEPNDLIVGPSALNRAPRYTRAQDSTIEALILIVVGPDGTSDWRDGKLDDRPPYLTPAAIESLATRYPNMRHLLTNLPSVDRRRDGGLVRSHRAFFATDFAGDGTPSESPQKTITELLRVPPDWQLYDDAEGVVCISLAPIEGLDAIPSSVYFKSH”, “soluble”.
The entry for “MSSWAKVIYGASTELDAKVVELNVGGQFYTTTMGTLMKHPGSKFSEILSRSARHYKDAQGRFFIDRPGTYFGLLLDYLRTGQVPTEYVPEVYQEAKFYQIHLLVKILEDMPQIFGEQVARTQFLMGVPNYRENLEVLLHLARAEAVAMRSSKVVVCVVRTEEEDAKCVKPLHILEAKKTPVVKFGPWKAGPMTEDFVCCLEKDIRAKGYKVTSQRYYLSRDPYTCFWIFVFTWW” is “not soluble”.
